The target of test [1] is T1, bovine serum albumin (bovine, UniProt P02769 25-607).
T1 construct: Negative control antigen in the non-specific reactivity ELISA; also called BSA; BSA (1%)
Description: ELISA, phage antibody on coated 1% BSA, anti-M13 peroxidase, OD 492 nm. The procedure: (§1) To test for non-specific reactivity against non-bacterial antigens an ELISA assay was used. The complex antigens 5% FBS, 2% ELK and 1% BSA were coated overnight to Maxisorp™ ELISA plates. Selected single-chain phage antibodies were incubated for 15 minutes in an equal volume of PBS containing 1% BSA to obtain blocked phage antibodies. The plates were emptied, and the blocked single-chain phage antibodies were added to the wells. Incubation was allowed to proceed for two hours at room temperature, the plates were washed in PBS containing 0.1% v/v Tween-20 and bound phage antibodies were detected by means of OD 492 nm measurement using an anti-M13 antibody conjugated to peroxidase. As a control, the procedure was performed simultaneously without single-chain phage antibody, with a negative control single-chain phage antibody directed against West Nile virus envelope protein (SC04-374).
On the technique in general: ELISA stands for enzyme-linked immunosorbent assay.

In test [2] the target is T1, bovine serum albumin. Kind of test: ELISA, phage antibody on coated 1% BSA, anti-M13 peroxidase. The procedure:
as §1

T1 sequence (P02769 25-607 limits assumed): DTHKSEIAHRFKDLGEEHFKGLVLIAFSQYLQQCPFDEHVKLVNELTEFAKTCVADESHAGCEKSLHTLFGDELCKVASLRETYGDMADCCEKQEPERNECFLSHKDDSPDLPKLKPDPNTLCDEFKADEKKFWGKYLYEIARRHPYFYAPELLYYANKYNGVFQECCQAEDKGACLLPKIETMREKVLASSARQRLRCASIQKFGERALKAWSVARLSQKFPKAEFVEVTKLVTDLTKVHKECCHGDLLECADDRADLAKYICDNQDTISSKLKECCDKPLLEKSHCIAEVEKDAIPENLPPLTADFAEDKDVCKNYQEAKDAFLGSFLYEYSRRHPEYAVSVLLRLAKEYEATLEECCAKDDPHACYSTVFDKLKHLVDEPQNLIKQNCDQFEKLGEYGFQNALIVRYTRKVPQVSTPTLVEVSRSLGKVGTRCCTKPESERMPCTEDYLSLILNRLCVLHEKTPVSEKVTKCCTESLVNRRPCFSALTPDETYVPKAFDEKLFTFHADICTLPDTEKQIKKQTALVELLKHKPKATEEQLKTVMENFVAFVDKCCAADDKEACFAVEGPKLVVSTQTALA

B1: single-chain phage antibody SC02-430 (scFv)
scFv: QVQLQESGPGLVKPSQTLSLTCTVSGGSISSGGYYWSWIRQPPGKGLEWIGYIYYSGSTYYNSSLKSRVTISVDTSKNQFSLKLSSVTAADTAVYYCAKTVMNSFFDWGQGTLVTVSSGGGGSGGGGSGGGGSEIELTQPPSVSGSPGQSITISCTGTSSDVGSYNLVSWYQQHPGKAPKLMIYEVSKRPSGVSNRFSGSKSGNTASLTISGLQAEDEADYYCCSYAGSSWVFGGGTKLTVL
notes: Selected from the semi-synthetic library JK1994 on S. aureus strain Cowan; also called scFv SC02-430
For B1, in the test with bovine serum albumin [1], the binding result was “no binding”. Besides, the “ELISA (OD492 nm)” value with bovine serum albumin [2] worked out at 0.04 OD492 nm.

B2: single-chain phage antibody SC05-133 (scFv)
scFv: EVQLVETGGGLVKPGGSLRLSCSASRFSFRDYYMTWIRQAPGKGPEWVSHISGSGSTIYYADSVRGRFTISRDNAKSSLYLQMDSLQADDTAVYYCARGGRATSYYWVHWGPGTLVTVSSGTGGSGGTGSGTGGSTEIVLTQSPATLSLSPGERATLSCRASQSVSGYLGWYQQKPGQAPRLLIYGASSRATGIPDRFSGSGSGTDFTLTISRLEPEDFAVYYCQQYGSSPLTFGGGTKLEIKR
notes: also called scFv SC05-133
In the case of B2, the binding result with bovine serum albumin [1] is “no binding”. The “ELISA (OD492 nm)” value in the test with bovine serum albumin [2] was 0.04 OD492 nm.

(Values after patent US20090104204A1 (CRUCELL HOLLAND B V, published 2009).)
